Measured values as given in patent US20230357429A1 (JANUX THERAPEUTICS, published 2023).

T1: Human TROP2 ECD (31-274 AA), biotinylated (human, UniProt P09758 31-274, biotinylated (site not stated))
T1 construct: also called tumor-associated calcium signal transducer 2; Human TROP2-biotin
T1 sequence: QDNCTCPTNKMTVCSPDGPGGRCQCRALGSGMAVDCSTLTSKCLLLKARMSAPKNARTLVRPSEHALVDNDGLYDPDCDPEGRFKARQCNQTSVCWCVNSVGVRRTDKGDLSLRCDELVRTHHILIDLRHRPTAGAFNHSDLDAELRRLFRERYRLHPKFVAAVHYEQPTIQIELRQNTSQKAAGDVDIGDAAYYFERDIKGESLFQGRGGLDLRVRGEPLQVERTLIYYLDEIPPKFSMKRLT


Assays:
[1] = molecular target: T1, Human TROP2 ECD (31-274 AA), …; experiment: ELISA, biotinylated TROP2 ECD on neutravidin plate, Fab titrated
Procedure: (§1) Binding was detected using a standard horse radish peroxidase secondary antibody. The concentration of the TBD required to achieve 50% maximal signal (EC₅₀) was calculated.

[2] = molecular target: T1, Human TROP2 ECD (31-274 AA), …; experiment: ELISA: biotinylated TROP2 captured on neutravidin plate, Fab titrated, HRP secondary antibody
Procedure: as §1

[3] = molecular target: T1, Human TROP2 ECD (31-274 AA), …; experiment: BLI (Octet), dissociation half-life from biotinylated human TROP2 ECD
Procedure: (§2) Kinetic binding was measured using biolayer interferometry (BLI). […] The TBDs diluted in buffer were then associated onto the antigen loaded biosensors. Sensors were then transferred to buffer where the TBD constructs then dissociated from the sensors. Association and dissociation rates were measured in real time using an Octet® instrument.

[4] = molecular target: T1, Human TROP2 ECD (31-274 AA), …; experiment: ELISA, ratio of EC50 to that of TBD-1 wt
Procedure: as §1

[5] = molecular target: T1, Human TROP2 ECD (31-274 AA), …; experiment: BLI (Octet), biotinylated human TROP2 ECD on SAX sensor, Fab 6.25-50 nM
Procedure: as §2

Row | EC50 [1] [nM] | EC50 [2] [nM] | t1/2 [3] [min] | Fold shift in EC50 relative to wt [4] [fold] | Kd [5] [nM] | Binder
1 | 72.2 | 72.2 | 1 | 361 | 5.71 | TBD-15 (anti-TROP2 Fab, HC G102A) (Fab, V domains shown) VH: QVQLQQSGSELKKPGASVKVSCKASGYTFTNYGMNWVKQAPGQGLKWMGWINTYTGEPTYTDDFKGRFAFSLDTSVSTAYLQISSLKADDTAVYFCARGGFASSYWYFDVWGQGSLVTVSS VL: DIQLTQSPSSLSASVGDRVSITCKASQDVSIAVAWYQQKPGKAPKLLIYSASYRYTGVPDRFSGSGSGTDFTLTISSLQPEDFAVYYCQQHYITPLTFGAGTKVEIKR
2 | 0.2 | 0.177 | 103 | 1 | 0.211 | TBD-16 (anti-TROP2 Fab, HC S103A) (Fab, V domains shown) VH: QVQLQQSGSELKKPGASVKVSCKASGYTFTNYGMNWVKQAPGQGLKWMGWINTYTGEPTYTDDFKGRFAFSLDTSVSTAYLQISSLKADDTAVYFCARGGFGASYWYFDVWGQGSLVTVSS VL: DIQLTQSPSSLSASVGDRVSITCKASQDVSIAVAWYQQKPGKAPKLLIYSASYRYTGVPDRFSGSGSGTDFTLTISSLQPEDFAVYYCQQHYITPLTFGAGTKVEIKR
3 | 38.6 | 38.6 | 4 | 193 | 18.7 | TBD-14 (anti-TROP2 Fab, HC F101A) (Fab, V domains shown) VH: QVQLQQSGSELKKPGASVKVSCKASGYTFTNYGMNWVKQAPGQGLKWMGWINTYTGEPTYTDDFKGRFAFSLDTSVSTAYLQISSLKADDTAVYFCARGGAGSSYWYFDVWGQGSLVTVSS VL: DIQLTQSPSSLSASVGDRVSITCKASQDVSIAVAWYQQKPGKAPKLLIYSASYRYTGVPDRFSGSGSGTDFTLTISSLQPEDFAVYYCQQHYITPLTFGAGTKVEIKR
